Source: the supplement of paper PMC9170038

Legend:
MS2 coat protein [1] = experiment: apparent KD of MS2 coat protein; designed switch direction (-1 OFF switch, 1 ON switch): 1; higher = weaker reporter binding
Summary of the method: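 Designed RNA switches sharing common flanks were transcribed on Illumina chips by stalled E. coli RNA polymerase. They were titrated with SNAP-549-labelled MS2 coat protein, from 0.7 or 1.5 nM doubling to 3 µM, in Tris-HCl pH 7.5 buffer with KCl, MgCl2, BSA, DTT, tRNA and Tween-20. Titrations ran without input, with 200 uM small-molecule ligand, or with an oligonucleotide input. The apparent KD of each design is the median over its clusters, after curve-fitting of normalised cluster fluorescence.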

MS2 coat protein [2] = experiment: apparent KD of MS2 coat protein; higher = weaker reporter binding; conditions: Eterna round: R107
Summary of the method: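 Apparent KD stands for the median, per design, of fits to normalised cluster binding curves. The curves came from titrating on-chip-transcribed RNA switches on Illumina sequencing clusters with SNAP-549-labelled MS2 coat protein, twofold from 0.7 or 1.5 nM to 3 µM. Buffer was 100 mM Tris-HCl pH 7.5, 80 mM KCl, 4 mM MgCl2, without or with constant ligand.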

[3] = input ligand: microRNA oligo, concentration not stated
[4] = Eterna round: R95, input ligand: FMN 200 uM
[5] = Eterna round: R95, input ligand: microRNA oligo, concentration not stated
[6] = Eterna round: R95, input ligand: none
[7] = input ligand: theophylline 20 uM
[8] = input ligand: tryptophan 2.4 mM
[9] = input ligand: theophylline 2 mM

Row | Sequence | apparent KD of MS2 coat protein (MS2 coat protein [1]; input ligand: FMN 200 uM) [µM] | apparent KD of MS2 coat protein (MS2 coat protein [1]; [3]) [µM] | apparent KD of MS2 coat protein (MS2 coat protein [1]; input ligand: none) [µM] | also measured
1 | AAAACAUGAGGAUCACCCAUGUGUAAAAGAUACCGGAUGGUGCAGGAUAUAUCCCAUUAAAGUGGAUAGAAGGGUGGCAUCAAG [Eternabot solution 46] (Eterna round: R96, puzzle: Same State NG 3) | 0.0208 | 0.0325 | 0.0321 | 
2 | AAACACAUGAGGAUCACCCAUGUAGCACCAUUGAGGCGCACAUAGGAUAUCCGGUCCAAAAGACCGGAGAAGGGUGAAAGAAAA [Veandi] (Eterna round: R96, puzzle: Same State NG 3) | 0.0597 | 0.371 | 0.328 | 
3 | AAACAUGAGCGAGGAUAUGCAGAGGAUCACCCUGUAGAAGGCGCAUGUAAAACAACAUGAGGAUCACCCAUGUCAUGUACAUGA (Eterna round: R96, puzzle: Same State NG 1) | 0.0194 | 0.0153 | 0.0202 | 
4 | AAACGGUCGCUGCGGCAACCACAUGAGGAUCACCCAUGUACAUAGGAUAUCGCCUAAAAUACUGGCGAGAAGGGUGAUUAAAGA [Onbiriza] (Eterna round: R96, puzzle: Same State NG 3) | 0.0287 | 0.0179 | 0.0737 | 
5 | AAAGAAAACGCAGGAUAUCCCGGAAAAGAUCCGGGAGAAGGGUGACCGGUACAUGAGGAUCACCCAUGUAGAGCAAAGGCUCAA [Ceonbeti] (Eterna round: R96, puzzle: Same State NG 1) | 0.232 | 0.133 | 0.128 | 
6 | AACAAUCUAUCUGAGGAUAUCAUGAAUAAAACAUGAGGAUCACCCAUGUGCAGGAAAACUGCAUAUGAGAAGGCAGAUAGAUUGU [Mat - Same State 2 - Mod - D11] (puzzle: Same State 2) |  |  |  | apparent KD of MS2 coat protein (MS2 coat protein [1]; [4]): 0.0693 µM; apparent KD of MS2 coat protein (MS2 coat protein [1]; [5]): 2.61 µM; apparent KD of MS2 coat protein (MS2 coat protein [1]; [6]): 2.14 µM
7 | AACAAUCUAUCUGAGGAUAUCAUGAAUUAAACAUGAGGAUCACCCAUGUGCAGGAAAACUGCAUAUGAGAAGGCAGAUAGAUUGA [salish99_ss2_r3_032] (puzzle: Same State 2) |  |  |  | apparent KD of MS2 coat protein (MS2 coat protein [1]; [4]): 0.0402 µM; apparent KD of MS2 coat protein (MS2 coat protein [1]; [5]): 0.707 µM; apparent KD of MS2 coat protein (MS2 coat protein [1]; [6]): 0.0587 µM
8 | AACCAACAAAUAAAACAAGCGUGCUCGUCACAUGAGGAUCACCCAUGUUUAAGCGCUGUUCCUACAUCCGCAGCGCC [Inbitiar] (puzzle: Sensor for hsa-mir-208a) |  |  |  | apparent KD of MS2 coat protein (MS2 coat protein [1]; [4]): 0.178 µM; apparent KD of MS2 coat protein (MS2 coat protein [1]; [5]): 0.0325 µM; apparent KD of MS2 coat protein (MS2 coat protein [1]; [6]): 0.232 µM
9 | AACCCGAUGGAAGGAUAUGGCACCUUAUUGGUGCCAGAAGGUCCAAACAUGAGGAUCACCCAUGUGGGCCGGUCGAAAGACCGG [Fiskers NG1ss - 11] (Eterna round: R96, puzzle: Same State NG 1) | 0.0324 | 0.0532 | 0.0752 | 
10 | AACUGUUUCUGAGGAUAUCAGUAGUAUGCCAAUUGAGAAGGCAGUACAUGAGGAUCACCCAUGUUGUGGUUUGAUAGAAUGAUA [JR_SSNG1_Sub003] (Eterna round: R96, puzzle: Same State NG 1) | 0.182 | 0.133 | 0.214 | 
11 | AAGAGAGGAAGCGAGGAUAUCGUGGGAGGGACAUGAGGAUCACCCAUGUAGGAUGUAGAGAGGAACGAGAAGGCGCAGGAAAGAA [JR_SS2_Sub073] (puzzle: Same State 2) |  |  |  | apparent KD of MS2 coat protein (MS2 coat protein [1]; [4]): 0.049 µM; apparent KD of MS2 coat protein (MS2 coat protein [1]; [5]): 0.0677 µM; apparent KD of MS2 coat protein (MS2 coat protein [1]; [6]): 0.0792 µM
12 | AAGAUGCUCGUAGGAUAUUGGAAAGGAAGUGUACAAGAAGGACGGUGUCACAUGAGGAUCACCCAUGUUACAGUCUAAGGACUA [PowerStrip SSNG 1.16] (Eterna round: R96, puzzle: Same State NG 1) | 0.0215 | 0.0132 | 0.0203 | 
13 | AAGGUGCAGGUACAGGAUAUGUUGCUCGUAACAUGAGGAUCACCCAUGUACCUAUGAGAUUAAAUGCAGAAGGGUGCACACCAAA [Mat - Same State 2 - Mod of UCT - D91] (Eterna round: R96, puzzle: Same State 2) | 0.0706 | 0.168 | 0.731 | 
14 | AAGGUGCAGGUACAGGAUAUGUUGCUCGUAACAUGAGGAUCACCCAUGUACCUAUGAGAUUAAAUGCAGAAGGGUGCACACCAAA [Mat - Same State 2 - Mod of UCT - D91] (puzzle: Same State 2) |  |  |  | apparent KD of MS2 coat protein (MS2 coat protein [1]; [4]): 0.073 µM; apparent KD of MS2 coat protein (MS2 coat protein [1]; [5]): 0.484 µM; apparent KD of MS2 coat protein (MS2 coat protein [1]; [6]): 0.302 µM
15 | AAUAAGUUCAGCUCGUCUUGCGCCGACUGACAUGAGGAUCACCCAUGUGGAUUCCAAGAGAUCCAUUGGCGUGUUUC [Erisdian] (puzzle: Sensor for hsa-mir-208a) |  |  |  | apparent KD of MS2 coat protein (MS2 coat protein [1]; [4]): 0.0379 µM; apparent KD of MS2 coat protein (MS2 coat protein [1]; [5]): 0.0876 µM; apparent KD of MS2 coat protein (MS2 coat protein [1]; [6]): 0.079 µM
16 | AAUCGUUUGAUAGGAUAUCGCUAUACAUGAGGAUCACCCAUGUUUACCACGCUGGUUUUUCGUACUGAGAAGGAUUCUGAUGAU [JL JR sub007 mod 7] (Eterna round: R96, puzzle: Same State NG 2) | 0.0361 | 0.0304 | 0.0425 | 
17 | AAUUAAGAUUGAGGAUAUCACGUCGAUUAGACGUGAGAAGGCGAUCAUAACAUGAGGAUCACCCAUGUAUUACAUGAAUUAAUU [SSNG1/5-B2] (Eterna round: R96, puzzle: Same State NG 1) | 0.0319 | 0.0262 | 0.0366 | 
18 | AAUUUAAUACAUGAGGAUCACCCAUGUAAUACUAGUAAGAUCUAGGAUAUCAGCUCGAUUAGAGCUGAGAAGGAGAUCACAUGU [SSNG3/19-C2] (Eterna round: R96, puzzle: Same State NG 3) |  | 0.0829 |  | 
19 | ACACAGCUGGGUGAGGAUAUCGGUGGUAAAACAUGAGGAUCACCCAUGUCCGAAGCUCGGACUUCCGAGAAGGCGCCCGGCUGCA [Areronanma] (puzzle: Same State 2) |  |  |  | apparent KD of MS2 coat protein (MS2 coat protein [1]; [4]): 0.0124 µM; apparent KD of MS2 coat protein (MS2 coat protein [1]; [5]): 0.0864 µM; apparent KD of MS2 coat protein (MS2 coat protein [1]; [6]): 0.151 µM
20 | ACAGAGUGAAGACAGGAUAUUCGCGAUGGCACAUGAGGAUCACCCAUGUUUUGAGCACAUAAACAGAAGAAGGGUUAAAACUCAG [Zadier] (Eterna round: R96, puzzle: Same State 2) | 0.0136 | 0.0741 | 0.104 | 
21 | ACAGAGUGAAGACAGGAUAUUCGCGAUGGCACAUGAGGAUCACCCAUGUUUUGAGCACAUAAACAGAAGAAGGGUUAAAACUCAG [Zadier] (puzzle: Same State 2) |  |  |  | apparent KD of MS2 coat protein (MS2 coat protein [1]; [4]): 0.015 µM; apparent KD of MS2 coat protein (MS2 coat protein [1]; [5]): 0.119 µM; apparent KD of MS2 coat protein (MS2 coat protein [1]; [6]): 0.362 µM
22 | ACAUGAGACGCAGGAUAUCUUGUACCUACAUGUGACAUGAGGAUCACCCAUGUGGUAAGUAUGAUAGAGAAGGGCGAGAUAUGU [Equivalance 56 - Jieux - Same State NG 2] (Eterna round: R96, puzzle: Same State NG 2) | 0.0197 | 0.0316 | 0.0589 | 
23 | ACAUGAGAGAUAGGAUAUGUUGUACCUACAUGUGACAUGAGGAUCACCCAUGUGGUAAGUAUGAGACAGAAGGAUCAGAUAUGU [Equivalence 31 - Jieux - Same State NG 2] (Eterna round: R96, puzzle: Same State NG 2) | 0.0208 | 0.0414 | 0.074 | 
24 | ACAUGAGGAUCACCCAUGUAGGCUCAGGAAACUGUGCCACAUGAGGAUAUGGAUCCUAAUUGGAUCCAGAAGGCAUGAUUUAUU [Fiskers NG3ss - 21] (Eterna round: R96, puzzle: Same State NG 3) | 0.243 | 1.24 | 1.29 | 
25 | UUGUACGAAACUGAUACCAGCCAGCAAUGCCACCAAGAGCACAUGAGGAUCACCCAUGUUGGCCCUUGGCAGCAGGACAAUAAGC [theeternabot_exclusion_MS2_Theo_B_3] |  |  |  | apparent KD of MS2 coat protein (MS2 coat protein [2]; input ligand: arginine 13.2 mM): 0.00744 µM; apparent KD of MS2 coat protein (MS2 coat protein [2]; [7]): 0.0106 µM; apparent KD of MS2 coat protein (MS2 coat protein [2]; [8]): 0.00891 µM
26 | UUUAACAAGAACGUCCUGAGUGACAAGCUACGAGGACCGGUACGGCCGCCACUCGUACCAAAACAUGAGGAUCACCCAUGUUAAA [theeternabot_exclusion_MS2_Trp_A_44] |  |  |  | apparent KD of MS2 coat protein (MS2 coat protein [2]; input ligand: arginine 13.2 mM): 0.0134 µM; apparent KD of MS2 coat protein (MS2 coat protein [2]; [7]): 0.0193 µM; apparent KD of MS2 coat protein (MS2 coat protein [2]; [9]): 0.0211 µM
27 | UUUAAGAACCGAAGGAGCGCCAGAAAUAAGAACGCUACAUGAGGAUCACCCAUGUAAUAAGGGCAGGUAGGUCGCGGAAUUUAAA [last] |  |  |  | apparent KD of MS2 coat protein (MS2 coat protein [2]; input ligand: arginine 13.2 mM): 0.0179 µM; apparent KD of MS2 coat protein (MS2 coat protein [2]; input ligand: none): 0.0212 µM; apparent KD of MS2 coat protein (MS2 coat protein [2]; [7]): 0.0334 µM; apparent KD of MS2 coat protein (MS2 coat protein [2]; [9]): 0.0247 µM; apparent KD of MS2 coat protein (MS2 coat protein [2]; [8]): 0.0214 µM
28 | UUUGAUAGGACAGAUACCAGCGUGUUGUUGAACAUGAGGAUCACCCAUGUAGUGAUCGAGCGCCCUUGGCAGCUGGUUUGUUAGG [7.O] |  |  |  | apparent KD of MS2 coat protein (MS2 coat protein [2]; input ligand: arginine 13.2 mM): 0.102 µM; apparent KD of MS2 coat protein (MS2 coat protein [2]; [7]): 0.433 µM; apparent KD of MS2 coat protein (MS2 coat protein [2]; [8]): 0.307 µM
29 | UUUUAAAGCAUGGCGUAUCGGAAAACCGAUACCAGUACAGAAAUGUACCCUUGGCAGCGGCAUUUUACAUGAGGAUCACCCAUGU [Ex Theophylline A 2] |  |  |  | apparent KD of MS2 coat protein (MS2 coat protein [2]; input ligand: arginine 13.2 mM): 0.016 µM; apparent KD of MS2 coat protein (MS2 coat protein [2]; [7]): 0.0184 µM; apparent KD of MS2 coat protein (MS2 coat protein [2]; [8]): 0.0145 µM
